Experimental data as given in article PMC4158885 (The EMBO Journal, 2014).

Tests used:
[1] = target: the molecule itself; assay: crystal structure; ctPan3 PKC bound to ctPan2 343–458, P21 symmetry, two copies of the complex in the asymmetric unit, molecular replacement
[2] = target: T1, ctPan2 Δ353–375 (PID deletion in full-length ctPan2) (Chaetomium thermophilum, UniProt G0SAK8 1-1170, Δ353–375); assay: SEC; separately purified ctPan2 constructs and ctPan3 PKC dimer mixed 1:1 at 1 μM, 15 min at room temperature; Superdex 200 Increase 3.2/300 in 20 mM Tris pH 8.0, 500 mM NaCl, 2 mM TCEP; fractions on SDS–PAGE; conditions: both partners purified
T1 construct: Pan2, Chaetomium thermophilum, full-length context with an internal deletion of residues 353-375
T1 sequence (looked up): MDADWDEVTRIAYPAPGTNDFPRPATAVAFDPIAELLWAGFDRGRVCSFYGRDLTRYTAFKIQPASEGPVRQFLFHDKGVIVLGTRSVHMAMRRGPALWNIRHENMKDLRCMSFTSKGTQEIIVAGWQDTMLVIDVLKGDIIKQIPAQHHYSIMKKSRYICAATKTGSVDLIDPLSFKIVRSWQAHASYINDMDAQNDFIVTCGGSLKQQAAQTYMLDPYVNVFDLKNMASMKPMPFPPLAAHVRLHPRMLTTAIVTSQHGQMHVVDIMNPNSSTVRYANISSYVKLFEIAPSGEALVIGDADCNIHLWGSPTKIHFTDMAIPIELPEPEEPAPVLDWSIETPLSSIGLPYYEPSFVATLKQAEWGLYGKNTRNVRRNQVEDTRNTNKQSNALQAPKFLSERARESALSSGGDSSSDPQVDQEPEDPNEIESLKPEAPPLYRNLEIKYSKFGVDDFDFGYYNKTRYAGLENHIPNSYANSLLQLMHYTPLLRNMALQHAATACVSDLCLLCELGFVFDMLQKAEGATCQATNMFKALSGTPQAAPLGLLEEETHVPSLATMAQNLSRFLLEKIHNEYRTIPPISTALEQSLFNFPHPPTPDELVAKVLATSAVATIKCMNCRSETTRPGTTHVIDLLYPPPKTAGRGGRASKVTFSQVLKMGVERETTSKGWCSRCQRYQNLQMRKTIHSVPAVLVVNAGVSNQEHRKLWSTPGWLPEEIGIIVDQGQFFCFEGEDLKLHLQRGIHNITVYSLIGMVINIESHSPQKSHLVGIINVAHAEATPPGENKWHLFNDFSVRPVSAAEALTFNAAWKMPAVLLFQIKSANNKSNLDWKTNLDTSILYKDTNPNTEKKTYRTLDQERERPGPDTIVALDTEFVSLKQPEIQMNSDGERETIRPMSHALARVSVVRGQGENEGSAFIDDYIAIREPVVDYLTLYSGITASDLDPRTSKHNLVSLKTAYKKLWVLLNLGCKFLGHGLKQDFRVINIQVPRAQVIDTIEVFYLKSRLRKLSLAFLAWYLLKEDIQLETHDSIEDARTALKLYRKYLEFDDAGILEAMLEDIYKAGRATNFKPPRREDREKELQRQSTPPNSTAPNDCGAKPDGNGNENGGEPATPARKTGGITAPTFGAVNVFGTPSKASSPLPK

B1: ctPan3 pseudokinase/C-terminal domain (PKC, residues 205–640), purified from E. coli (domain or fragment, Chaetomium thermophilum, UniProt G0S0Y3 205-640, looked up)
chain: RQELQPWQRATYDFFMPQNLREDLQKKQFATLQVIPNSGLPQLEHWHSLVPLDTSNRKNTSCFGYPSWVYKAQNSRNGRHYALRRLEGYRLTNEKAILNVMKDWKKIKNASIVTIHEVFTTREFGDSSLIFAYDFHPLSKTLQEHHFQPIHGNRYRPPPAVPENTIWGYICQIANALKTIHSNRLAARCLEPSKIILTDINRIRLSACAILDVVQFGMNSRSVVELQQEDFVKFGKLILSLATGTLPAHLNNIPAALETLGNKYSANLKSAVNWLLDTSSGETKTIEHFMTGIASQMTTFFDLALQDNDEKLFHLAREVENGRIARSLMKLLTILERGDYDGVPSWSETGDRYQLKLFRDYVFHRVDADGKPNLSIGHMLTCMSKLEAGVDENILLTSRDNETVFVLSYRELRQMYDRAFNELVKASKTGAPGANT
notes: Pan3, Chaetomium thermophilum, pseudokinase (242-497), coiled coil (499-538) and C-terminal domain (555-640), construct residues 205-640; The crystals of ctPan3 PKC alone (PDB 4CYI) were of Se-Met-labelled protein; also called ctPan3 PKC; ctPan3 PKC dimer; source: E. coli, purified (glutathione Sepharose)
- binding result [1]: binds
- binding result [2]: binds
